Square brackets hold non-standard residues; d marks the D form. GABA = NCCCC(=O)O
Columns and labels:
[1] = molecular target: T1, recombinant human β-catenin, full-length (human, UniProt P35222 1-781, limits assumed); assay: SPR (Biacore 3000), recombinant β-catenin immobilized, five Nb concentrations, 1:1 Langmuir
T1 construct: Purified from E. coli; also called full-length β-catenin
T1 sequence (looked up): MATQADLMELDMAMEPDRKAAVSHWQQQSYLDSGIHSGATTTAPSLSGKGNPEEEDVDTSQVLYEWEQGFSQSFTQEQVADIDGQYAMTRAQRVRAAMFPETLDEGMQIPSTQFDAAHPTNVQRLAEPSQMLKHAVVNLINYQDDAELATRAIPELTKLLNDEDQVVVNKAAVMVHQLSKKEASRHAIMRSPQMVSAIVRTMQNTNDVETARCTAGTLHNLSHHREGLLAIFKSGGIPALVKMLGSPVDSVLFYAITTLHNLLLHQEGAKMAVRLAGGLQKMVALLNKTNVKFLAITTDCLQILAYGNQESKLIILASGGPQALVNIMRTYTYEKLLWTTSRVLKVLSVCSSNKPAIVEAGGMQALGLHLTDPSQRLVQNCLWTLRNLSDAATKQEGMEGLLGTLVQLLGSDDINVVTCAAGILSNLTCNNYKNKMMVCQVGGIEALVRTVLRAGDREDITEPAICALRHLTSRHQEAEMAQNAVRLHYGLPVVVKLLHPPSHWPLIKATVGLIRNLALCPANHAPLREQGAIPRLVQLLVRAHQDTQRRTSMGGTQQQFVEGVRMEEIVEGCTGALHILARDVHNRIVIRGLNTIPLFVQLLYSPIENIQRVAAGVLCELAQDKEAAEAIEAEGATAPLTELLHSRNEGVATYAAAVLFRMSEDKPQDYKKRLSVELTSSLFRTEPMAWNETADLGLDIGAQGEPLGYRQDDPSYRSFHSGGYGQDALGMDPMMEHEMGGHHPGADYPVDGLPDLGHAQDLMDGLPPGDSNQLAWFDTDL
Method: The dissociation was induced by two injections of regeneration solution of 15 μl each at the identical flow rates.

[2] = molecular target: T2, BC2T W10F peptide (BC2TW10X library) (human); assay: BC2TW10X library pulldown with immobilized Nb, LC-MS of the supernatant
T2 construct: also called W10 permutant F
T2 peptide: Ac-PDRKAAVSHFQQ-NH2
Method: (§1) To investigate the binding specificity of the BC2T and derived mutants peptide libraries for each amino acid position of the sequence […] (SEQ ID NO:4) were synthesized with acetyl and amide groups located at the N-termini or C-termini respectively (Intavis). […] Incubations were performed in 300 μl PBS/0.01% CHAPS for 1 h on a HulaMixer (Life Technologies). Subsequent to a centrifugation step 10 μl supernatant were analyzed in a LC-MS procedure. Peptides were separated using an UltiMate3000 RSLCnano System (Thermo Scientific), composed of a C18 PepMap100μ-Precolumn (300 μm×5 mm; particle size: 5 μm; pore size: 100 Å—Thermo Scientific) and a C18 analytical column (Acclaim Rapid Separation LC (RSLC) Column: 150 mm×5 mm; particle size: 2.2 μm; pore size: 100 Å—Thermo Scientific). A step gradient was applied starting at 8% and ending after 20 min at 30% eluent B (80% acetonitrile, 20% H₂O, 0.1% formic acid). Peptides were analyzed using a FULL-MS-strategy detected by a Q Exactive Plus mass spectrometer (Thermo Scientific). As maximal injection time 100 ms was chosen while setting the AGC target to 3E6. The resolution was set to 70.000. Half-maximal signal areas were referenced to control precipitation approaches using a GFP-specific nanobody immobilized on agarose beads. All experiments were done in triplicates.

[3] = molecular target: T3, BC2T W10R peptide (BC2TW10X library) (human); assay: as above
T3 construct: also called W10 permutant R
T3 peptide: Ac-PDRKAAVSHRQQ-NH2
Method: as §1

[4] = molecular target: T4, BC2T W10N peptide (BC2TW10X library) (human); assay: as above
T4 construct: also called W10 permutant N
T4 peptide: Ac-PDRKAAVSHNQQ-NH2
Method: as §1

[5] = molecular target: T5, BC2T W10G peptide (BC2TW10X library) (human); assay: as above
T5 construct: also called W10 permutant G
T5 peptide: Ac-PDRKAAVSHGQQ-NH2
Method: as §1

[6] = molecular target: T6, BC2T W10Y peptide (BC2TW10X library) (human); assay: as above
T6 construct: also called W10 permutant Y
T6 peptide: Ac-PDRKAAVSHYQQ-NH2
Method: as §1

[7] = molecular target: T7, BC2T W10C peptide (BC2TW10X library) (human, also: Abu described as gamma-amino butyric acid); assay: as above
T7 construct: also called W10 permutant C(Abu)
T7 peptide: Ac-PDRKAAVSH[GABA]QQ-NH2
Method: as §1

[8] = molecular target: T8, BC2T W10P peptide (BC2TW10X library) (human); assay: as above
T8 construct: also called W10 permutant P
T8 peptide: Ac-PDRKAAVSHPQQ-NH2
Method: as §1

[9] = molecular target: T9, BC2T W10V peptide (BC2TW10X library) (human); assay: as above
T9 construct: also called W10 permutant V
T9 peptide: Ac-PDRKAAVSHVQQ-NH2
Method: as §1

[10] = molecular target: T10, BC2T W10L peptide (BC2TW10X library) (human); assay: as above
T10 construct: Isobaric with the isoleucine peptide; also called W10 permutant L
T10 peptide: Ac-PDRKAAVSHLQQ-NH2
Method: as §1

[11] = molecular target: T11, BC2T W10H peptide (BC2TW10X library) (human); assay: as above
T11 construct: also called W10 permutant H
T11 peptide: Ac-PDRKAAVSHHQQ-NH2
Method: as §1

[12] = molecular target: T12, BC2T W10A peptide (BC2TW10X library) (human); assay: as above
T12 construct: also called W10 permutant A
T12 peptide: Ac-PDRKAAVSHAQQ-NH2
Method: as §1

[13] = molecular target: T13, BC2T W10T peptide (BC2TW10X library) (human); assay: as above
T13 construct: also called W10 permutant T
T13 peptide: Ac-PDRKAAVSHTQQ-NH2
Method: as §1

[14] = molecular target: T14, BC2T W10S peptide (BC2TW10X library) (human); assay: as above
T14 construct: also called W10 permutant S
T14 peptide: Ac-PDRKAAVSHSQQ-NH2
Method: as §1

[15] = molecular target: T15, BC2T W10E peptide (BC2TW10X library) (human); assay: as above
T15 construct: also called W10 permutant E
T15 peptide: Ac-PDRKAAVSHEQQ-NH2
Method: as §1

[16] = molecular target: T16, BC2T W10M peptide (BC2TW10X library) (human); assay: as above
T16 construct: also called W10 permutant M
T16 peptide: Ac-PDRKAAVSHMQQ-NH2
Method: as §1

B1: BC2 nanobody (VHH)
VHH: QVQLVESGGGLVQPGGSLTLSCTASGFTLDHYDIGWFRQAPGKEREGVSCINNSDDDTYYADSVKGRFTIFMDNAKDTVYLQMNSLKPEDTAIYYCAEARGCKRGRYEYDFWGQGTQVTVSS
notes: Alpaca VHH, 122 aa; also called BC2-Nb; BC2 nanotrap (BC2-Nb immobilized on agarose/Sepharose beads); not shown: C-terminal 6xHis-tag added by the pHEN6 vector
In the case of B1, the Kd [1] is reported as ~3.1 nM, the binding result [2] is reported as “no binding” and the binding result [3] is reported as “no binding”. B1: no binding [4]; no binding [5]; no binding [6]. B1: no binding [7]; no binding [8]; no binding [9]. B1: no binding [10]; no binding [11]; no binding [12]. B1: no binding [13]; no binding [14]; no binding [15]. B1: no binding [16].

From patent publication US20170137467A1 (CHROMOTEK, published 2017)
